In paper PMC5283164:
Values belong to the substance of their own block, whether it stands above or below them.

Tests used:
[1] = molecular target: SNP-treated (S-nitrosylated) pea chloroplast 2-Cys Prx (Pisum sativum (pea)); assay: SEC; Superdex-200 HR 10/30, 50 mM Tris-HCl pH 7.5, 150 mM NaCl; DTT-reduced protein incubated with 750 uM SNP, excess removed
[2] = molecular target: mitochondrial Prx IIF from pea (Pisum sativum), recombinant, not glutathionylated (Pisum sativum (pea)); assay: SEC; Superdex-200 HR 10/30, room temperature, 50 mM Tris-HCl pH 7.5, 150 mM NaCl, 0.5 mL/min; untreated (native) protein
[3] = molecular target: mitochondrial Prx IIF from pea (Pisum sativum), recombinant, not glutathionylated (Pisum sativum (pea)); assay: SEC; Superdex-200 HR 10/30, room temperature, 50 mM Tris-HCl pH 7.5, 150 mM NaCl; protein (50 uM) reduced with 10 mM DTT for 30 min, excess DTT removed
[4] = molecular target: glutathionylated pea mitochondrial Prx IIF (Cys59-SG, Cys84-SG) (Pisum sativum (pea)); assay: SEC; Superdex-200 HR 10/30, 50 mM Tris-HCl pH 7.5, 150 mM NaCl; DTT-reduced protein incubated with 5 mM GSNO at room temperature (different incubation times for 2-Cys Prx), excess removed
[5] = molecular target: glutathionylated pea mitochondrial Prx IIF (Cys59-SG, Cys84-SG) (Pisum sativum (pea)); assay: SEC; Superdex-200 HR 10/30, 50 mM Tris-HCl pH 7.5, 150 mM NaCl; DTT-reduced protein incubated with 5 mM GSSG at 4 C for 24 h, excess removed
[6] = molecular target: chloroplast 2-Cys Prx from pea (Pisum sativum), recombinant, not glutathionylated (Pisum sativum (pea)); assay: SEC; Superdex-200 HR 10/30, room temperature, 50 mM Tris-HCl pH 7.5, 150 mM NaCl, 0.5 mL/min; untreated (native) protein
[7] = molecular target: chloroplast 2-Cys Prx from pea (Pisum sativum), recombinant, not glutathionylated (Pisum sativum (pea)); assay: SEC; Superdex-200 HR 10/30, room temperature, 50 mM Tris-HCl pH 7.5, 150 mM NaCl; protein (50 uM) reduced with 10 mM DTT for 30 min, excess DTT removed

stoichiometry N [1]: 10
Substance: SNP-treated (S-nitrosylated) pea chloroplast 2-Cys Prx (enzyme)

stoichiometry N [2]: 6
stoichiometry N [3]: 2
Substance: mitochondrial Prx IIF from pea (Pisum sativum), recombinant, not glutathionylated (enzyme)

stoichiometry N [4]: 2
stoichiometry N [5]: 2
Substance: glutathionylated pea mitochondrial Prx IIF (Cys59-SG, Cys84-SG) (enzyme)

stoichiometry N [6]: 2
stoichiometry N [7]: 10
Substance: chloroplast 2-Cys Prx from pea (Pisum sativum), recombinant, not glutathionylated (enzyme)
